Results as given in publication doi:10.1101/2024.05.31.596772 (2024).

Target: microtubules (pig (purified from porcine brain))
Sequence (chain, as listed by the source, chain 1 of 2): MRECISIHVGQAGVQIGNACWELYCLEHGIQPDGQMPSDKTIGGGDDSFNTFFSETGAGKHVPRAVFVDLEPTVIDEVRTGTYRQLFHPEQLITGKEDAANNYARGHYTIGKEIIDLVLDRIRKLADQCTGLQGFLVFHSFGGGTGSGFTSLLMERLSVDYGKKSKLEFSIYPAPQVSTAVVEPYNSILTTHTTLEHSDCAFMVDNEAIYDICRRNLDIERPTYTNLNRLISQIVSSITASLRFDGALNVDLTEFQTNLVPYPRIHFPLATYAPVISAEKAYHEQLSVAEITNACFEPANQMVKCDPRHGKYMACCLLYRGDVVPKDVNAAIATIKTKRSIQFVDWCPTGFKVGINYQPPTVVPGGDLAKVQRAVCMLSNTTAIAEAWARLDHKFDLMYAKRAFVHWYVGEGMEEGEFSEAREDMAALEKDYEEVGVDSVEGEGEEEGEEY
Sequence (chain, as listed by the source, chain 2 of 2): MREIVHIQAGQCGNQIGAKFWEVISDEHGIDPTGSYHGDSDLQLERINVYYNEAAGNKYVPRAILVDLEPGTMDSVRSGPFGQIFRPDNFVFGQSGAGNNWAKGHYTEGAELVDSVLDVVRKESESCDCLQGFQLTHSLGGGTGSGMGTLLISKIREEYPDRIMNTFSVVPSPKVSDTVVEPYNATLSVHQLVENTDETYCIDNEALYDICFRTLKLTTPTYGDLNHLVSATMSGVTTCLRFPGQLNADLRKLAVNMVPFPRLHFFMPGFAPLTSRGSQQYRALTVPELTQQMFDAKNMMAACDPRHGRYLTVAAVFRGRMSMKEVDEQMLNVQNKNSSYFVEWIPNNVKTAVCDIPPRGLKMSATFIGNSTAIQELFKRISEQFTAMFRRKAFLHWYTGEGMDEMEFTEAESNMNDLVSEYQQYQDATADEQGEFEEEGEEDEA

- Kd: 2140 nM
B1: GFP-CAMSAP3 CKK (domain or fragment)
chain: GPRLYKEPSAKSNKFIIHNALSHCCLAGKVNEPQKNRILEEIEKSKANHFLILFRDSSCQFRALYTLSGETEELSRLAGYGPRTVTPAMVEGIYKYNSDRKRFTQIPAKTMSMSVDAFTIQGHLWQSKKPTTPKK
